Here are results for two molecules from paper PMC4513230 (2015).

For data set [1], the system named is 40S ribosomal subunit, Rps5-E144R;eIF1;eIF1A;eIF2 WT. Nature of the data set: EMSA kinetics (Kd = koff/kon). As to conditions: methionylated; T7 transcript; 30 mM Hepes-KOH pH 7.4, 100 mM KOAc, 3 mM Mg(OAc)2, 2 mM DTT, 26°C; 1 nM [35S]-Met-tRNAi, 200-250 nM eIF2, 1 uM eIF1 and eIF1A, 100 uM GDPNP (Kd assays), mRNA ….
For data set [2], the system named is 40S ribosomal subunit, Rps5-R148E;eIF1;eIF1A;eIF2 with eIF2beta-S264Y (SUI3-2). Nature of the data set: EMSA kinetics (dissociation). The settings on record: methionylated; T7 transcript; 30 mM Hepes-KOH pH 7.4, 100 mM KOAc, 3 mM Mg(OAc)2, 2 mM DTT, 26°C; 1 nM [35S]-Met-tRNAi, 200-250 nM eIF2, 1 uM eIF1 and eIF1A, 100 uM GDPNP (Kd assays), mRNA ….
In data set [3] the test system is 40S ribosomal subunit, WT Rps5;eIF1;eIF1A;eIF2 with eIF2beta-S264Y (SUI3-2). Nature of the data set: EMSA kinetics (dissociation). The settings on record: methionylated; T7 transcript; 30 mM Hepes-KOH pH 7.4, 100 mM KOAc, 3 mM Mg(OAc)2, 2 mM DTT, 26°C; 1 nM [35S]-Met-tRNAi, 200-250 nM eIF2, 1 uM eIF1 and eIF1A, 100 uM GDPNP (Kd assays), mRNA ….
For data set [4], the system named is 40S ribosomal subunit, Rps5-R148E;eIF1;eIF1A;eIF2 WT. In words: EMSA kinetics (dissociation). As to conditions: methionylated; T7 transcript; 30 mM Hepes-KOH pH 7.4, 100 mM KOAc, 3 mM Mg(OAc)2, 2 mM DTT, 26°C; 1 nM [35S]-Met-tRNAi, 200-250 nM eIF2, 1 uM eIF1 and eIF1A, 100 uM GDPNP (Kd assays), mRNA ….
Data set [5] deals with 40S ribosomal subunit, Rps5-E144R;eIF1;eIF1A;eIF2 WT. In words: EMSA (native gel). As to conditions: methionylated; T7 transcript; 30 mM Hepes-KOH pH 7.4, 100 mM KOAc, 3 mM Mg(OAc)2, 2 mM DTT, 26°C; 1 nM [35S]-Met-tRNAi, 200-250 nM eIF2, 1 uM eIF1 and eIF1A, 100 uM GDPNP (Kd assays), mRNA ….
In data set [6] the test system is 40S ribosomal subunit, WT Rps5;eIF1;eIF1A;eIF2 WT. In words: EMSA (native gel). The settings on record: methionylated; T7 transcript; 30 mM Hepes-KOH pH 7.4, 100 mM KOAc, 3 mM Mg(OAc)2, 2 mM DTT, 26°C; 1 nM [35S]-Met-tRNAi, 200-250 nM eIF2, 1 uM eIF1 and eIF1A, 100 uM GDPNP (Kd assays), mRNA ….
In data set [7] the test system is 40S ribosomal subunit, Rps5-R148E;eIF1;eIF1A;eIF2 WT. In words: EMSA (native gel). The settings on record: methionylated; T7 transcript; 30 mM Hepes-KOH pH 7.4, 100 mM KOAc, 3 mM Mg(OAc)2, 2 mM DTT, 26°C; 1 nM [35S]-Met-tRNAi, 200-250 nM eIF2, 1 uM eIF1 and eIF1A, 100 uM GDPNP (Kd assays), mRNA ….
Data set [8] addresses 40S·eIF1·eIF1A complex assembled with Rps5-R148E mutant 40S subunits (yeast (S. cerevisiae), UniProt P26783 1-225; P32911 1-108; P38912 1-153, R148E).

initiator Met-tRNAi had a binding signal (fold lower affinity than WT 40S) in data set [1] of 40. Besides, the binding signal (fold higher koff than WT 40S) in data set [2] came out at 4; in data set [4] it was 2. Moreover, the binding signal (fold lower koff than with WT eIF2) in data set [3] was 3. Also, the Kd in data set [5], in data set [6] and in data set [7] was < 1 nM each time.

B1: eIF2∙GTP∙Met-tRNAi ternary complex (TC), wild-type eIF2 (complex)
chain 1: MSTSHCRFYENKYPEIDDIVMVNVQQIAEMGAYVKLLEYDNIEGMILLSELSRRRIRSIQKLIRVGKNDVAVVLRVDKEKGYIDLSKRRVSSEDIIKCEEKYQKSKTVHSILRYCAEKFQIPLEELYKTIAWPLSRKFGHAYEAFKLSIIDETVWEGIEPPSKDVLDELKNYISKRLTPQAVKIRADVEVSCFSYEGIDAIKDALKSAEDMSTEQMQVKVKLVAAPLYVLTTQALDKQKGIEQLESAIEKITEVITKYGGVCNITMPPKAVTATEDAELQALLESKELDNRSDSEDDEDESDDE
chain 2: MSSDLAAELGFDPALKKKKKTKKVIPDDFDAAVNGKENGSGDDLFAGLKKKKKKSKSVSADAEAEKEPTDDIAEALGELSLKKKKKKTKDSSVDAFEKELAKAGLDNVDAESKEGTPSANSSIQQEVGLPYSELLSRFFNILRTNNPELAGDRSGPKFRIPPPVCLRDGKKTIFSNIQDIAEKLHRSPEHLIQYLFAELGTSGSVDGQKRLVIKGKFQSKQMENVLRRYILEYVTCKTCKSINTELKREQSNRLFFMVCKSCGSTRSVSSIKTGFQATVGKRRRM
chain 3: MSDLQDQEPSIIINGNLEPVGEPDIVEETEVVAQETQETQDADKPKKKVAFTGLEEDGETEEEKRKREFEEGGGLPEQPLNPDFSKLNPLSAEIINRQATINIGTIGHVAHGKSTVVRAISGVQTVRFKDELERNITIKLGYANAKIYKCQEPTCPEPDCYRSFKSDKEISPKCQRPGCPGRYKLVRHVSFVDCPGHDILMSTMLSGAAVMDAALLLIAGNESCPQPQTSEHLAAIEIMKLKHVIILQNKVDLMREESALEHQKSILKFIRGTIADGAPIVPISAQLKYNIDAVNEFIVKTIPVPPRDFMISPRLIVIRSFDVNKPGAEIEDLKGGVAGGSILNGVFKLGDEIEIRPGIVTKDDKGKIQCKPIFSNIVSLFAEQNDLKFAVPGGLIGVGTKVDPTLCRADRLVGQVVGAKGHLPNIYTDIEINYFLLRRLLGVKTDGQKQAKVRKLEPNEVLMVNIGSTATGARVVAVKADMARLQLTSPACTEINEKIALSRRIEKHWRLIGWATIKKGTTLEPIA
For the molecule B1, the affinity in data set [8], expressed as Kd, was 101 nM.
